According to article PMC10843261 (Molecular cell, 2023):

Target: SARS-CoV-2 nsp12 (SARS-CoV-2, UniProt P0DTD1)
Assay: cryo-EM structure

B1: SARS-CoV-2 nsp9 (natural protein)
chain: NNELSPVALRQMSCAAGTTQTACTDDNALAYYNTTKGGRFVLALLSDLQDLKWARFPKSDGTGTIYTELEPPCRFVTDTPKGPKVKYLYFIKGLNNLNRGMVLGSLAATVRLQ
B1: binds.

B2: RNAylated-nsp9 (20mer RNA) (natural protein)
chain: NNELSPVALRQMSCAAGTTQTACTDDNALAYYNTTKGGRFVLALLSDLQDLKWARFPKSDGTGTIYTELEPPCRFVTDTPKGPKVKYLYFIKGLNNLNRGMVLGSLAATVRLQ
B2: binds.
